Key:
Assay in all cases: Kinase Profiling Assay
Type in all cases: biochemical
Conditions in all cases: 100 μM
PKD2 (h) = biological target: T1, PKD2 (h) (Homo sapiens, UniProt Q9BZL6)
T1 sequence (Q9BZL6 1-878): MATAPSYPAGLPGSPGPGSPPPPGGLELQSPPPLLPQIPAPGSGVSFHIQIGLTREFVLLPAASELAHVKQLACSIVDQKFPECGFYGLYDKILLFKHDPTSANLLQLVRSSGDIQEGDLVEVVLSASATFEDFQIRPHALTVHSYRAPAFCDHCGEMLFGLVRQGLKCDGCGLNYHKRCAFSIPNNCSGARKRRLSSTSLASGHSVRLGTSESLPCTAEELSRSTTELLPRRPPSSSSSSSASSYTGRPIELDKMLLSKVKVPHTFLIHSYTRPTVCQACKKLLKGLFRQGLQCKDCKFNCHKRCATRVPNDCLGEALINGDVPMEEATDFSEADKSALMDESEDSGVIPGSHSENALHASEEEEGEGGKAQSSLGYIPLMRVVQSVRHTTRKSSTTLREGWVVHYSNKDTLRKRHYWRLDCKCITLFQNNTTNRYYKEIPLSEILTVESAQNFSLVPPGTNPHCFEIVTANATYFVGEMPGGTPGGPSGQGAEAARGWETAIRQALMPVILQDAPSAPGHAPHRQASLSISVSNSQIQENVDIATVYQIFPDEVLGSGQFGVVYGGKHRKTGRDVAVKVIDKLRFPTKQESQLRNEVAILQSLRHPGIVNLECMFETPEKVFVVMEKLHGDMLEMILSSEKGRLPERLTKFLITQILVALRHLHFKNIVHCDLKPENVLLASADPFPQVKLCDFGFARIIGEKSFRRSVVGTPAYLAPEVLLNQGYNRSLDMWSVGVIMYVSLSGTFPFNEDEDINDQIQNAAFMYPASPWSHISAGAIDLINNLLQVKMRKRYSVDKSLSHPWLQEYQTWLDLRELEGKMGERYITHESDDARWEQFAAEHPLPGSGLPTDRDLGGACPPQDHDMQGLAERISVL
Summary of the method: (§1)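 In this 266-kinase specificity panel, every measurement was duplicated. Transfer of labeled phosphate from ATP to a cationic substrate was quantified after the substrate adhered to an anionic filter membrane and was scintillation-counted, then related to a full-activity control.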

eEF-2K (h) = biological target: T2, eEF-2K (h) (Homo sapiens, UniProt O00418)
T2 construct: purchased Millipore
Summary of the method: as §1

CaMKIIβ (h) = biological target: T3, CaMKIIβ (h) (Homo sapiens, UniProt Q13554)
T3 construct: purchased Millipore
T3 sequence (Q13554 whole entry): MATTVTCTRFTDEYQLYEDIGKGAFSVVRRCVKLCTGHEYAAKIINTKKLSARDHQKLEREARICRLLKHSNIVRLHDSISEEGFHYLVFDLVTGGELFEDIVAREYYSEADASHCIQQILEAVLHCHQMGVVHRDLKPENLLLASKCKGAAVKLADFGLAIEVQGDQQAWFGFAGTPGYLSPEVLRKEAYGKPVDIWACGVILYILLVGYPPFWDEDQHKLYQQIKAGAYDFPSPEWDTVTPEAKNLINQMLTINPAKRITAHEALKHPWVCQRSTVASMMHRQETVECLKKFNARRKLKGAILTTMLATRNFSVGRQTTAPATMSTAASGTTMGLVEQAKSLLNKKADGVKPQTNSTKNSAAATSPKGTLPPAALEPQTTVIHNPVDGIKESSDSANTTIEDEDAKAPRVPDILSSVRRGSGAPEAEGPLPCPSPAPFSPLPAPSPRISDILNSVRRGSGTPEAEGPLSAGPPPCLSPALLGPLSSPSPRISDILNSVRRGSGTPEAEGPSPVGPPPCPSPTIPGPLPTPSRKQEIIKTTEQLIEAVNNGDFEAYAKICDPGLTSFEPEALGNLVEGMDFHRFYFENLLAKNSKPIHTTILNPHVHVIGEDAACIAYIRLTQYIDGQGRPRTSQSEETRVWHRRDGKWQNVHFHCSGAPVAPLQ
Summary of the method: as §1

PKG1β (h) = biological target: T4, PKG1β (h) (Homo sapiens, UniProt Q13976)
T4 sequence (Q13976 1-686 isoform Q13976-2): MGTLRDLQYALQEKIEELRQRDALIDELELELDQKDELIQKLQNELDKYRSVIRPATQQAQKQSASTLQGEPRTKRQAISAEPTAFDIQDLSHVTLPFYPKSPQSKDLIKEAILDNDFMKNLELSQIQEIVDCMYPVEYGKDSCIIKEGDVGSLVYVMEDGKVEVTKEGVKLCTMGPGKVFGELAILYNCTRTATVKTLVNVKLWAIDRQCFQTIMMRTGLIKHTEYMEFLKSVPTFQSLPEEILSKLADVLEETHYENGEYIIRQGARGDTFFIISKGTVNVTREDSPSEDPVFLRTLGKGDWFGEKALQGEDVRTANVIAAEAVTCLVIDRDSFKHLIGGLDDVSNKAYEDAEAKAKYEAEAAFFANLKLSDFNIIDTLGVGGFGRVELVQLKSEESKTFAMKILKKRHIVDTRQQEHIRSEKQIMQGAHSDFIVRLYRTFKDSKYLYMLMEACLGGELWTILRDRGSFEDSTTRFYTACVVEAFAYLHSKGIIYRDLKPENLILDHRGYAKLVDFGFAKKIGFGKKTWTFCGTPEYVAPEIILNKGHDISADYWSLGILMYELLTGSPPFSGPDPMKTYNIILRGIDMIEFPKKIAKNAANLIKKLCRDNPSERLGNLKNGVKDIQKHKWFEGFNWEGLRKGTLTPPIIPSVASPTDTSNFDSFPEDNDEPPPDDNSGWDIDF
Summary of the method: as §1

Bmx (h) = biological target: T5, Bmx (h) (Homo sapiens, UniProt P51813)
T5 sequence (P51813 1-675): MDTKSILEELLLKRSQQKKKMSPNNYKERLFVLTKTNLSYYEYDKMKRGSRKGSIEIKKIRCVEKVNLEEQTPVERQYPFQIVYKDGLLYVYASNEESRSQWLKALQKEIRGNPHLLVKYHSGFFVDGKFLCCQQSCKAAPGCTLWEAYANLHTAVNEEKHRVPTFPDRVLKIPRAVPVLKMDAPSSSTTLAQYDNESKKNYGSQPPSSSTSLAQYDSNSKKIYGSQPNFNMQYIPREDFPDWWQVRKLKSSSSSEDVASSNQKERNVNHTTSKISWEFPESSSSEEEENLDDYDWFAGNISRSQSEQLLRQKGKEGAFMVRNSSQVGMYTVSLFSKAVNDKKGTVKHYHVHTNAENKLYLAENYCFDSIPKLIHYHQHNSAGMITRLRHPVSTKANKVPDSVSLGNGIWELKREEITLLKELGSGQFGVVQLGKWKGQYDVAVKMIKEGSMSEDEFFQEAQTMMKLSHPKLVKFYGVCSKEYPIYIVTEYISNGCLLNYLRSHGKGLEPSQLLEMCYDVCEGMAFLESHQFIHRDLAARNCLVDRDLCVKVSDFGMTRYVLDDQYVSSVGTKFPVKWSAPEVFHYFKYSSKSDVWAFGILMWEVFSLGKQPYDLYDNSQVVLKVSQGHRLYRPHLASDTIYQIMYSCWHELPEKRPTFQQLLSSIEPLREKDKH
Summary of the method: as §1

Sequence | % activity (PKD2 (h)) [%] | % activity (eEF-2K (h)) [%] | % activity (CaMKIIβ (h)) [%] | % activity (PKG1β (h)) [%] | % activity (Bmx (h)) [%]
FAKLAARLYRKALARQLGVAA [MMI-0300] | 33 | 91 | 2 | 50 | –
HRRIKAWLKKIKALARQLGVAA (Mammalian) [MMI-0500] | 10 | 43 | 3 | 24 | 45
KAFAKLAARLYRKALARQLGVAA [MMI-0400] | 25 | 43 | 11 | 53 | 26
YARAAARQARAKALNRQLGVA (Mammalian) [MMI-0200] | 78 | – | 53 | 57 | 76

— US10500249B2, “Compositions and methods for preventing or treating diseases, conditions, or processes characterized by aberrant fibroblast proliferation and extracellular matrix deposition” (MOERAE MATRIX, INC., priority 2014, dated 2019)
